B1: TNT88 (antibody, human IgG1, kappa, V domains shown)
VH: QVQLQESGPGLVKPSDTLSLTCTVSGFAFSIYDMSWIRQPPGKGLEWIAYISSGGGTTYYNPSLKSRVTISVDTSKNQFSLKLSSVTAADTAVYYCARHSGYGTHWGVLFAYWGRGTLVTVSS
VL: DIVMTQTPLSLSVTPGQPASISCRASQDIHGYLNWYQQKPGQSPQLLIYYTSILHSGVPDRFSGSGSGTDFTLKISRVEAEDVGVYFCQQGNTLPWTFGGGTKLEIKR
B2: TNT71 (antibody, human IgG1, kappa, V domains shown)
VH: EVQLVESGGGLVQPGGSLRLSCAASGFTFSSYEMNWVRQAPGKGLEWVSYISSSGSTIYYADSVKGRFTISRDNAKNSLYLQMNSLRAEDTAVYYCARHSGYGTHWGVLFAYWGRGTLVTVSS
VL: DIQMTQSPSSLSASVGDRVTITCRASQDIHGYLNWYQQKPGKAPKLLIYYTSILHSGVPSRFSGSGSGTDFTLTISSLQPEDFATYFCQQGNTLPWTFGQGTKLEIKR
B3: TNT77 (antibody, human IgG1, kappa, V domains shown)
VH: EVQLVESGGGLVQPGGSLRLSCAASGFAFSIYDMSWVRQAPGKGLEWVAYISSGGGTTYYPDTVKGRFTISRDNSKNTLYLQMNSLRAEDTAVYYCARHSGYGTHWGVLFAYWGRGTLVTVSS
VL: DIQMTQSPSSLSASVGDRVTITCRASQSISSYLNWYQQKPGKAPKLLIYAASSLQSGVPSRFSGSGSGTDFTLTISSLQPEDFATYYCQQGNTLPWTFGQGTKLEIKR
B4: TNT72 (antibody, human IgG1, kappa, V domains shown)
VH: QVQLQESGPGLVKPSDTLSLTCTVSGFAFSIYDMSWIRQPPGKGLEWIAYISSGGGTTYYNPSLKSRVTISVDTSKNQFSLKLSSVTAADTAVYYCARHSGYGTHWGVLFAYWGRGTLVTVSS
VL: DIQMTQSPSSLSASVGDRVTITCRASQDIHGYLNWYQQKPGKAPKLLIYYTSILHSGVPSRFSGSGSGTDFTLTISSLQPEDFATYFCQQGNTLPWTFGQGTKLEIKR
B5: TNT82 (antibody, human IgG1, kappa, V domains shown)
VH: QVQLLESGGGVVQPGGSLRLSCAASGFAFSIYDMNWVRQAPGKGLEWVSAISSGGGTTYYADSVKGRFTISRDNAKNSLYLQMNSLRAEDTAVYYCARHSGYGTHWGVLFAYWGRGTLVTVSS
VL: EIVLTQSPATLSLSPGERATLSCRASQDIHGYLNWYQQKPGQAPRLLIYYTSILHSGIPARFSGSGPGTDFTLTISSLEPEDFAVYYCQQGNTLPWTFGGGTKLEIKR
B6: TNT83 (antibody, human IgG1, kappa, V domains shown)
VH: EVQLVESGGGLVQPGGSLRLSCAASGFTFSSYEMNWVRQAPGKGLEWVSYISSSGSTIYYADSVKGRFTISRDNAKNSLYLQMNSLRAEDTAVYYCARHSGYGTHWGVLFAYWGRGTLVTVSS
VL: EIVLTQSPATLSLSPGERATLSCRASQDIHGYLNWYQQKPGQAPRLLIYYTSILHSGIPARFSGSGPGTDFTLTISSLEPEDFAVYYCQQGNTLPWTFGGGTKLEIKR

How the values were obtained:
[1] = target: T1, cynomolgus monkey CD22 on B cells of cynomolgus PBMCs (cynomolgus monkey); test: flow cytometry; Alexa Fluor 647-labelled antibody on CD20+ B cells of cynomolgus PBMCs
T1 construct: whole, on cells; also called cynomolgus CD22; Cyno CD22
Method: (§1) Binding of humanized anti-CD22 antibodies to human or cynomolgus PBMCs was measured by flow cytometry. Trima residuals were received from Vitalant and cynomolgus monkey whole blood were received from BioIVT. Both were diluted 1:4 with Phosphate Buffered Saline (PBS, Gibco). Diluted blood was split into two tubes and underplayed with 15 mL Ficoll-Paque (GE Healthcare). Tubes were centrifuged for 30 minutes at 400×g. PBMCs were collected from the interface, washed and resuspended in FACS buffer (PBS with 0.5% Bovine Serum Albumin (Gibco)). 100K PBMCs from human and cynomolgus monkey were plated in 96-well plates and pelleted by centrifugation for five minutes at 400×g and stained at 4° C. in 100 μl Fixable Viability Dye eFluor 780 (Thermo Fisher) diluted 1:4000 in PBS. Cells were centrifuged and stained at 4° C. in 100 μl FACS buffer for 30 minutes containing FcR Blocking Reagent (Miltenyi Biotec), anti-CD20 and Alexa Fluor 647 conjugated CD22 binding antibodies, which were labeled using Molecular Probes Alexa Fluor 647 Protein Labeling kit (Molecular Probes) according to manufacturer's protocol. Cells were centrifuged and washed twice in 200 μl FACS buffer and fixed in 100 μl 0.5% paraformaldehyde. Cells were analyzed on Attune NxT Flow Cytometer (Thermo Fisher), with subsequent data analysis by Flowjo 10.7 (Treestar). Dead cells were excluded by gating on the eFluor 780-negative population. CD20+ cells were gated to identify B cells and median fluorescent intensity for CD22 was determined.

[2] = target: T2, human CD22 (d1 to d7 domain according to NP_001762.2) (human, UniProt P20273 20-687); test: SPR; summary table, column 'CD22 KD (nM)'
T2 construct: domain: d1 to d7 domain; also called human CD22-gly; Siglec-2

[3] = target: T2, human CD22 (d1 to d7 domain according …); test: SPR; mAb supernatant captured on protein A chip, human CD22 injected
Method: Binding of humanized anti-CD22 antibodies to human CD22 was measured by surface plasmon resonance (SPR). For assessment of binding by SPR, biotinylated protein A (15 μg/mL) was immobilized to the surface of an NLC chip. 30 μL of mAb supernatant was added to 150 μL of PBS-T and captured over the protein A surface. Serial dilutions of human CD22-gly (300 nM, 3× dilution) were injected over the mAb-coated chips, and binding kinetics were determined. Chips were regenerated using 4:1 v/v of Pierce IgG elution butter/4M NaCl.

[4] = target: T3, human CD22 on B cells of human PBMCs (human, UniProt P20273 20-847); test: flow cytometry; Alexa Fluor 647-labelled antibody, human PBMCs
T3 construct: whole, on cells; also called CD22 on human B cells
Method: as §1
(§2) The fold increase in binding was determined by calculating the ratio of CD22 median fluorescent intensity on CD20⁺ over CD20⁻ cells.

[5] = target: T3, human CD22 on B cells of human PBMCs; test: flow cytometry; Alexa Fluor 647-labelled antibody on CD20+ B cells of human PBMCs
Method: as §1

[6] = target: T1, cynomolgus monkey CD22 on B cells of …; test: flow cytometry; Alexa Fluor 647-labelled antibody, cynomolgus PBMCs
Method: as §1, §2

[7] = target: T2, human CD22 (d1 to d7 domain according …); test: SPR; purified naked mAb captured on protein A chip, human CD22 injected
Method: To assess if CpG conjugation affects the binding of respective humanized anti-CD22 to human CD22, SPR assay was carried out. […] Briefly, biotinylated protein A (15 μg/mL) was immobilized to the surface of an NLC chip. 30 nM of purified naked mAb or CpG conjugated mAb solution in PBS-T was used for capture over the protein A surface. Serial dilutions of human CD22 (300 nM, 3× dilution) were injected over the mAb-coated chips, and binding kinetics were determined. Chips were regenerated using 4:1 v/v of Pierce IgG elution butter/4M NaCl.

Row | Binder | CD22 Median Fluorescent Intensity on CD20+ cells [1] | Kd [2] [nM] | Kd [3] [nM] | koff [3] [s⁻¹] | kon [3] [M⁻¹ s⁻¹] | CD22: CD20+/CD20- (ratio of median fluorescent intensity) [4] [fold] | CD22 Median Fluorescent Intensity on CD20+ cells [5] | CD22: CD20+/CD20- (ratio of median fluorescent intensity) [6] [fold] | Kd [7] [nM]
1 | B1 | 1270 | 1.3 | 1.34 | 0.000289 | 215000 | 26.2 | 1530 | 14.7 | –
2 | B2 | 1420 | 0.3 | 5.2 | – | – | – | 1460 | – | 0.263
3 | B3 | 236 | 10 | 10.2 | 0.00207 | 203000 | 20.9 | 1320 | 2.6 | –
4 | B4 | 1370 | 0.7 | 0.655 | – | – | – | 1560 | – | 0.922
5 | B5 | 1170 | 0.9 | 0.937 | 0.000156 | 167000 | 23.9 | 1520 | 12.6 | –
6 | B6 | 1400 | 6 | 5.94 | 0.0016 | 269000 | 23 | 1490 | 10.8 | –

— US20220380768A1 (TALLAC THERAPEUTICS, published 2022)
